In patent publication US20030073199A1 (SCHERING, published 2003):

Experiments:
[1] = biological target: T1, AK155 receptor complex (α-subunit CPNM1 / IL-20Rα and β-subunit IL-10Rβ), endogenous on cell lines (UniProt Q9UHF4 30-553; Q08334 20-325, limits assumed); assay: cell-based or functional assay
T1 sequence (looked up) 1: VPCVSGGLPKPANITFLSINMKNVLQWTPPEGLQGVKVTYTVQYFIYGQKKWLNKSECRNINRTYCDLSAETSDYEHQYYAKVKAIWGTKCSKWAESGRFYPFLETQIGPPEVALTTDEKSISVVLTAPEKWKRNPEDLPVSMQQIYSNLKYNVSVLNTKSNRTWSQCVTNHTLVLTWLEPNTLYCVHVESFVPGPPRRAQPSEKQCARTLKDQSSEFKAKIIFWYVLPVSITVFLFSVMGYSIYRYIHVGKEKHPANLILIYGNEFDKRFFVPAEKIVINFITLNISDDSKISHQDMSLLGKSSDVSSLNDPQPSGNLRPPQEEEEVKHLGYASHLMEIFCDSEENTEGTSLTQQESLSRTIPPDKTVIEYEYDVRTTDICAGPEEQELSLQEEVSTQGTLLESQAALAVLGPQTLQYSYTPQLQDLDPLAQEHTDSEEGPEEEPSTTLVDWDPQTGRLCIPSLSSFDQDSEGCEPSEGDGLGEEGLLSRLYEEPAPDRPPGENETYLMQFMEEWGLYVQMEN
T1 sequence (looked up) 2: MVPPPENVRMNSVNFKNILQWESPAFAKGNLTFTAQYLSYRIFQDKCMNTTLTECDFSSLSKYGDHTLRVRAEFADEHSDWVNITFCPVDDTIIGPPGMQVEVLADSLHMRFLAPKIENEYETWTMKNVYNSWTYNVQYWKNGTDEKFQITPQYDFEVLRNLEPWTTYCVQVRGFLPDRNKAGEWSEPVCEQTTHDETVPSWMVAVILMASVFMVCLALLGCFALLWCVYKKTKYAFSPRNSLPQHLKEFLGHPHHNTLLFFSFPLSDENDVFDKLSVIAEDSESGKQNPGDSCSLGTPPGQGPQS

[2] = biological target: the molecule itself; assay: SDS-PAGE and western blot of COS-7 cell extracts with and without denaturation (about 36 kDa against about 19 kDa)
Description: Further evidence for the dimeric state of AK155 was provided by analysis of AK155 extracted from mammalian cells. AK155 was cloned and expressed using the eukaryotic expression vector pME18S in COS-7 cells, where the protein was cloned with a FLAG sequence. The cells were extracted and the extracted protein was loaded as is, or heated with reductant, prior to loading on the electrophoresis gel. AK155 was not purified prior to analysis by SDS PAGE. Detection was by rabbit antiserum prepared against AK155 or by anti-FLAG monoclonal antibody.

B1: AK155 (preparation not stated) (ligand)
chain: KHKQSSFTKSCYPRGTLSQAVDALYIKAAWLKATIPEDRIKNIRLLKKKTKKQFMKNCQFQEQLLSFFMEDVFGQLQLQGCKKIRFVEDFHSLRQKLSHCISCASSAREMKSITRMKRIFYRIGNKGIYKAISELDILLSWIKKLLESSQ
With B1 the “fold increase of IL-8 concentration, HaCaT cells, with against without AK155” value [1] was 5 fold.

B2: AK155 cloned with a FLAG sequence, expressed in COS-7 cells from pME18S (ligand, not shown: small tags and cut ends)
chain: KHKQSSFTKSCYPRGTLSQAVDALYIKAAWLKATIPEDRIKNIRLLKKKTKKQFMKNCQFQEQLLSFFMEDVFGQLQLQGCKKIRFVEDFHSLRQKLSHCISCASSAREMKSITRMKRIFYRIGNKGIYKAISELDILLSWIKKLLESSQ
notes: Analysed unpurified in COS-7 cell extracts; also called FLAG-tagged AK155
B2: binds [2].
